# ± gives the uncertainty stated by the source.
# Test: protein stability index of a GFP-peptide fusion (yeast GPS) (PSI 1-4); higher = more stable; sorted into four equal gates, so the index is relative within each strain
# Summary of the method: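 For each peptide, the protein stability index sums the read frequency in every gate after multiplying it by the gate number. Read frequencies came from plasmids that were PCR-amplified from each gate and Illumina-sequenced, with reads assigned to strains by barcodes. The gates were four equal bins of GFP/Cherry fluorescence ratio applied to mid-log yeast in leucine-free medium carrying a pooled library of tiled 17-residue yeast protein peptides fused downstream of GFP on a Cherry-expressing plasmid.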
Sequence,protein stability index (pdr5∆),protein stability index (san1∆),protein stability index (ubr1∆),protein stability index (doa10∆)
RSLDENRLEIKYHNDLI [SMC1],3.2 ± 0.29,2.78 ± 0.26,3.14 ± 0.24,–
GRNNGKKLKAVRIIKHT [RPS5],2.25 ± 0.08,1.79 ± 0.09,2.81 ± 0.082,2.06 ± 0.12
MAESTTLETIEIHPITF [RRP43],2.58 ± 0.047,3.06 ± 0.044,2.68 ± 0.04,3.04 ± 0.073
PKSGIDIFVYLTYDKDL [MTR3],1.58 ± 0.052,1.78 ± 0.11,1.7 ± 0.053,1.9 ± 0.062
LGTTEGDIKVLDSNFNL [RPN14],3.11 ± 0.098,3.03 ± 0.078,3.26 ± 0.081,3.02 ± 0.12
GSCTGKFGYILCVLDYD [RPB7],2.54 ± 0.061,2.38 ± 0.067,2.31 ± 0.055,2.3 ± 0.084
EENPIMQTALRRLPEDE [QCR7],3.52 ± 0.28,–,3.39 ± 0.18,3.45 ± 0.28
ARVLSNYLRQQCNYSSL [PRE5],2.96 ± 0.11,–,2.78 ± 0.087,2.71 ± 0.17
RKHPGGRGMAGGQHHHR [RPL28],2.6 ± 0.26,3.03 ± 0.1,3.18 ± 0.16,2.94 ± 0.14
KFSDIIQGISKMYSDDT [BRN1],2.71 ± 0.066,2.14 ± 0.08,2.3 ± 0.085,2.93 ± 0.062
TGESWVKLTYNSPSSAL [YDL088C/ASM4],1.75 ± 0.055,2.08 ± 0.067,2.02 ± 0.04,2.31 ± 0.058
FNPYGDNGGTILGIAGE [PRE7],3.24 ± 0.11,3.24 ± 0.16,3.28 ± 0.064,3.37 ± 0.1
QKLMQLVVLTDVVERLH [RGR1],2.38 ± 0.049,2.23 ± 0.091,2.3 ± 0.035,2.29 ± 0.072
LLFAINSYQPSPFFVLD [SMC1],2 ± 0.078,2.23 ± 0.082,2.57 ± 0.044,2.16 ± 0.06
VILQSDLEEAYATQVKT [RPT3],2.57 ± 0.069,2.3 ± 0.083,2.53 ± 0.068,2.2 ± 0.1
NVVIDEAVEIPVNSADG [SME1],3.35 ± 0.068,3.24 ± 0.041,2.98 ± 0.045,2.97 ± 0.084
SNTSTLKNMLYVLSTAV [BRR2],1.53 ± 0.09,1.17 ± 0.18,1.38 ± 0.059,1.57 ± 0.066
AGVPRQAINLGQVVLTP [RPL14A],2.64 ± 0.13,1.58 ± 0.23,2.04 ± 0.21,2.09 ± 0.15
SLYAYCHSKLRGQQVEN [GRR1],2.52 ± 0.092,2.54 ± 0.1,2.6 ± 0.097,2.51 ± 0.1
QGSVRRLTVSARDAPTK [QCR2],3.16 ± 0.076,2.92 ± 0.086,3.14 ± 0.061,2.93 ± 0.12
HHRDSNFPDEDDDDSRK [SKP1],3.55 ± 0.17,3.07 ± 0.14,3.5 ± 0.18,3 ± 0.18
ANGTFMDFGVDPSMDPE [RPN10],3.05 ± 0.091,2.65 ± 0.12,2.87 ± 0.085,2.87 ± 0.12
IPHIFYSLHQIRKDPNN [CSE2],2.61 ± 0.071,2.5 ± 0.058,2.67 ± 0.042,2.7 ± 0.11
GVSSPGFSPTSPTYSPT [RPO21],3 ± 0.058,2.82 ± 0.057,3.05 ± 0.055,2.82 ± 0.069
EAGVTDVKVSISHDDLQ [FAS2],2.72 ± 0.038,2.74 ± 0.061,2.85 ± 0.047,2.77 ± 0.049
KKLELPKYIDELKTRDA [SWP82],3.39 ± 0.092,2.78 ± 0.077,3.48 ± 0.071,3.03 ± 0.097
CRKLSFSDKVNALWILV [ITC1],1.8 ± 0.044,1.5 ± 0.1,1.85 ± 0.051,1.72 ± 0.075

Sequence,protein stability index (pdr5∆),protein stability index (san1∆),protein stability index (ubr1∆),protein stability index (doa10∆)
PGLEFLDDTTIPVGLMA [MCD1],2.71 ± 0.059,3.03 ± 0.041,2.52 ± 0.055,1.99 ± 0.057
KTAEQVAAERAARKAAN [RPL7A],2.92 ± 0.06,2.78 ± 0.062,2.56 ± 0.052,2.94 ± 0.091
QEFDSELSKEEKERLES [SMC3],2.96 ± 0.16,2.98 ± 0.058,3.06 ± 0.081,2.97 ± 0.12
APSIIFMDEIDSIGSTR [RPT6],2.89 ± 0.088,2.83 ± 0.058,2.93 ± 0.054,2.76 ± 0.063
EVYKAEKDAVSVFGFRT [RPS24A],3.12 ± 0.086,3.36 ± 0.07,3.31 ± 0.13,3.24 ± 0.15
LERVKRIMEKSVILSVI [YML031W/NDC1],2.17 ± 0.094,1.98 ± 0.096,1.61 ± 0.049,2.71 ± 0.086
GYDPALLNILSGLPTCD [RPN2],2.91 ± 0.11,2.39 ± 0.078,2.55 ± 0.1,2.79 ± 0.083
SSIHWNNWFSLPGDMLA [SIN4],1.88 ± 0.055,1.71 ± 0.11,1.93 ± 0.041,2.56 ± 0.061
RLFNNVKIHSQESLLSR [SRP72],2 ± 0.06,2.44 ± 0.085,2.18 ± 0.044,2.61 ± 0.076
DSLNEWIKFDQELYNEL [RPN7],3.17 ± 0.19,3.17 ± 0.074,3.19 ± 0.073,3.18 ± 0.11
NKNQDAFEAELSNIPLL [ARP9],3.23 ± 0.086,3.01 ± 0.084,3.31 ± 0.076,3.12 ± 0.098
LFQENDDDDDDDDEVDY [DSN1],2.71 ± 0.1,2.97 ± 0.091,3.06 ± 0.15,2.94 ± 0.14
GYDPIVSTRAIDLLWKG [PRP28],2.03 ± 0.091,1.47 ± 0.11,2.6 ± 0.079,2.12 ± 0.18
DQDELVQPPLDKFPYKK [SWP82],3.26 ± 0.093,3.13 ± 0.059,3.08 ± 0.066,3.11 ± 0.088
QPIFVAHTAGRYANKRF [RPS5],2.03 ± 0.072,1.61 ± 0.12,1.78 ± 0.069,1.55 ± 0.076
SKVTKKHGAKKVAKRTK [RPL27B],3.02 ± 0.2,3.27 ± 0.2,3.26 ± 0.22,3.42 ± 0.27
KRELKQLLEKAPIPIRE [BRR2],2.22 ± 0.053,1.99 ± 0.13,1.91 ± 0.061,1.94 ± 0.05
KDGETTDANGKTIVTGG [RPO26],3.32 ± 0.047,3.37 ± 0.059,3.33 ± 0.047,3.39 ± 0.076
VEIVNYNVENQQYVAAG [FAS1],2.67 ± 0.18,–,–,2.66 ± 0.17
YLEELERKKQSDVLRFL [RPL15B],2.23 ± 0.22,1.44 ± 0.25,1.54 ± 0.1,1.34 ± 0.16
NIWLNNKIINWEISNPD [NUT1],2.56 ± 0.057,2.71 ± 0.11,2.56 ± 0.077,2.48 ± 0.076
DLAFGGEANKHHWEDLQ [RPN5],3.31 ± 0.16,3.07 ± 0.11,3.21 ± 0.091,3.09 ± 0.12
WSCIVVENWIIDDKGVL [ITC1],2.72 ± 0.08,2.71 ± 0.12,2.95 ± 0.063,2.18 ± 0.058
GINQILGNEKNQASTSK [CDC53],3.25 ± 0.14,3.11 ± 0.092,3.2 ± 0.073,3.08 ± 0.15
LGEIPNPMKKHKPNEGR [SIR4],2.55 ± 0.086,2.8 ± 0.062,2.88 ± 0.04,2.58 ± 0.077
QQTEKLNPQVADINKNF [RPN2],2.42 ± 0.058,2.44 ± 0.07,2.49 ± 0.055,1.91 ± 0.066
TRASKVLEQLSGQTPVQ [RPL11A],3.01 ± 0.12,2.84 ± 0.074,3.06 ± 0.077,–

Sequence,protein stability index (pdr5∆),protein stability index (san1∆),protein stability index (ubr1∆),protein stability index (doa10∆)
LYGVTICYNKKTEYVLN [REC8],1.3 ± 0.14,1.14 ± 0.13,1.34 ± 0.062,1.3 ± 0.058
IGTGEHIHDLEKFSPKS [SRP54],2.43 ± 0.053,2.9 ± 0.053,2.03 ± 0.042,2.33 ± 0.067
GHPMTKSVYETPKITAA [SEC65],2.63 ± 0.084,2.03 ± 0.24,1.91 ± 0.062,2.83 ± 0.17
PSESEHPIRVLMASVIL [YDL116W/NUP84],1.89 ± 0.064,1.75 ± 0.062,1.78 ± 0.08,1.87 ± 0.076
LIDSLENHLLVMKQVET [PRP28],2.19 ± 0.073,1.69 ± 0.19,2.06 ± 0.063,2.49 ± 0.11
LRTEYGWDSLASRNVWS [SNU114],3.11 ± 0.12,3.4 ± 0.099,3.38 ± 0.076,2.85 ± 0.099
SQTPKVEKTEKPKKPKG [RPS30A],3.12 ± 0.07,2.93 ± 0.051,2.94 ± 0.047,3.1 ± 0.07
PTVNRVPNYEVSEKAFL [RPN7],1.68 ± 0.1,1.79 ± 0.22,1.18 ± 0.17,1.14 ± 0.12
GCVDIDDALHAKKLPNG [DIS3],3.23 ± 0.051,3.14 ± 0.04,3.14 ± 0.037,3.26 ± 0.059
CNSLHIPQDFENEVSDI [ESC2],3.03 ± 0.056,2.93 ± 0.088,2.92 ± 0.045,2.95 ± 0.06
KKRSQAKMNAKTDFAKI [RPC82],3.23 ± 0.12,3.22 ± 0.076,3.37 ± 0.059,3.42 ± 0.094
QSDFCLSWCPSRFSPEK [YGL100W/SEH1],3.02 ± 0.19,–,–,3.09 ± 0.11
DLALPPPPPPPPGYEIE [PRP8],2.98 ± 0.11,2.54 ± 0.14,2.95 ± 0.073,3.08 ± 0.088
SKKDFKIIDNPKSFLKK [YMR129W/POM152],3.35 ± 0.095,3.08 ± 0.07,3.17 ± 0.092,3.05 ± 0.082
LEKKFPDRHVIFLAERR [RPS7B],2.87 ± 0.058,2.91 ± 0.046,3.1 ± 0.042,2.77 ± 0.066
EEYLDANVFRLENQKDL [MTW1],3.38 ± 0.087,3.28 ± 0.057,3.3 ± 0.044,3.4 ± 0.081
KRRFDPSSSDSNGPRAA [RRP6],3.31 ± 0.089,3.21 ± 0.048,3.33 ± 0.052,3.25 ± 0.073
SERIVDCIIRLPVKWET [FAS1],1.97 ± 0.083,1.75 ± 0.12,2.62 ± 0.056,2.3 ± 0.089
VKKQKSARGIETRPAQV [FAS2],3 ± 0.094,3.1 ± 0.083,3.09 ± 0.082,2.77 ± 0.1
DRIYMLFHFEEDEGEEL [PRP8],1.49 ± 0.064,1.5 ± 0.17,1.93 ± 0.057,1.64 ± 0.065
DPRIAPLRGALATYGLT [FAS2],2.51 ± 0.16,2.38 ± 0.13,2.04 ± 0.056,2.37 ± 0.1
DINTIKLQLSFVLQMVG [SRP72],1.88 ± 0.066,1.32 ± 0.11,1.57 ± 0.062,1.26 ± 0.092
MSSQISSLIPHCITSIT [MTR3],2.08 ± 0.061,2.07 ± 0.073,2.47 ± 0.075,1.77 ± 0.061
RHQQLLRSRLQQQQQQQ [SNF5],2.54 ± 0.078,2.4 ± 0.12,2.67 ± 0.072,2.47 ± 0.078
LKNFLSYESLKKRKIHN [MCD1],1.46 ± 0.039,2.12 ± 0.048,1.59 ± 0.034,1.55 ± 0.038
NVVLVTNDRLNREAATK [DIS3],2.9 ± 0.088,1.89 ± 0.21,2.37 ± 0.074,2.33 ± 0.086

# Source: the supplement of paper PMC9732359
